Measured values published in patent US20230272378A1, “ENCODING AND EXPRESSION OF ACE-tRNAs” (University of Rochester, priority 2020, published 2023).

How the values were obtained:
[1] = system: nuclei of nondividing cells; assay: Nuclear localization of DNA after cytoplasmic microinjection; format: cell-based
Description: (D) Schematic of ACE-tRNA MC and CEDT with SV40 DTS.
Inventors have screened over 60 strong general and cell-specific promoters and found seven DTSs. Of these, two perform ubiquitously, while five bind specific transcription factors expressed in a subset of cells.
As an alternative approach to directly labeling the plasmid with Cy3-PNAs, one can also carry out fluorescent in situ hybridization (FISH) to visualize injected DNA. DTS candidate plasmids can be tested for nuclear import activity over a 30 min to 8 hr period in microinjected A549 lung epithelial cells (Dean, D. A. Exp. Cell Res. 230, 293-302 (1997), Dean, D. A., et al., Exp. Cell Res. 253, 713-722 (1999), and Vacik, J., et al., Gene Therapy 6, 1006-1014 (1999)). […] This approach can allow one to rank sequences relative to the SV40 DTS based on their speed of nuclear import. Negative controls of the pUC57 plasmid with no DTS and a positive control of the pUC57-SV40 DTS can also be injected to ensure that the cells remain viable after injection and have the ability to transport DNA into the nucleus.
Importantly, existing MC and CEDT technologies are […] at PTC suppression in both cell culture and in vivo (FIGS. 4-7 and 10). […] Therefore, to improve nuclear targeting, transcription and PTC suppression, ACE-tRNA^ArgUGA MCs and CEDTs with the 72 nucleotide SV40 DTS and generally active DTS are generated. […]

PTC = assay: High resolution mass-spectrometry of the amino acid encoded at the PTC
Method: Assays were carried out to ascertain whether ACE-tRNAs identified in the screen were functionalized at the expense of recognition by the aminoacyl-tRNA synthetase. […] It was confirmed that using high resolution mass-spectrometry, the cognate amino acid for both ACE-tRNA^GlyUGA and -tRNA^TrpUGA were encoded with high fidelity, resulting in seamless PTC suppression.

UGA codon = assay: PTC suppression by ACE-tRNA: codon specificity and comparison with aminoglycosides; format: cell-based
Description: Using a novel high throughput cloning (HTC) and screening (HTS) method, a library of more than 500 suppressor tRNAs (ACE-tRNAs) was recently developed. In the library, the anticodon of human tRNA genes were engineered to recognize disease causing PTC codons (UAG, UAA and UGA). The ACE-tRNAs platform targeted all possible PTCs that are resultant of one nucleotide change from translated codons (tRNA^ArgUGA, tRNA^GlnUAA, tRNA^GlnUAG, tRNA^TrpUGA, tRNA^TrpUAG, tRNA^GluUAA, tRNA^GluUAG, tRNA^CysUGA, tRNA^TyrUAG, tRNA^TyrUAA, tRNA^LeuUGA, tRNA^LeuUAG, tRNA^LeuUAA, tRNA^LysUAG, tRNA^LysUGA, tRNA^SerUGA, tRNA^SerUAG, and tRNA^SerUAA).

p.G542X-CFTR mRNA = assay: qPCR of steady state CFTR mRNA (NMD inhibition) in p.G542X 16HBE14o- cells; format: cell-based, human; conditions: 48 hours after transfection, ACE-tRNA^Gly delivered as plasmid
Description: (§1) (A) Representative image of 16HBE14o- cells transfected on Transwells. (B) Representative Cl^− short circuit current traced from WT (Black), p.R1162X 16HBE14oe- cells transfected with empty vector (red) and 500 bp ACE-tRNA^Arg CEDTs (blue) in Ussing chamber recordings. […] All constructs were transfected at equal amounts. *p<0.05; **p<0.0001.
(§2) The majority of prior studies had used suppressor tRNAs to rescue PTCs encoded from cDNAs. […] In this example, 16HBE14o- cells, human bronchiole epithelial cell line, were used to determine ACE-tRNAs PTC suppression activity within the endogenous genomic landscape. Also used were mutant 16HBE14o- cells, which were CRISPR/Cas9 modified to harbor CF causing PTCs at positions p.G542X-, p.R1162X- and p.W1282X-CFTR. The cells were used to study CFTR and airway epithelia biology (Cozens, A. L. et al. American journal of respiratory cell and molecular biology 10, 38-47 (1994)).
(§3) The inventors next looked to see if ACE-tRNAs inhibited NMD following transfection of ACE-tRNA transcripts.

p.W1282X-CFTR mRNA = assay: qPCR of steady state CFTR mRNA (NMD inhibition) in p.W1282X 16HBE14o- cells; format: cell-based, human; conditions: pW1282X cells; 48 hours after transfection; equal amounts; plain ACE-tRNA^Leu = plasmid
Description: as §1, §2, §3
It had been previously shown that leucine at CFTR p.W1282 (p.W1282L) gives ˜80% WT CFTR function, as measured with Ussing chamber recordings (Xue, X. et al., Human molecular genetics 26, 3116-3129, doi:10.1093/hmg/ddx196 (2017)).

W1282X-CFTR mRNA = assay: CFTR mRNA expression in W1282X-CFTR 16HBE14ge- cells; format: cell-based, human
Method: In this example, studies were carried out to examine and compare rescues of endogenous CFTR PTCs with a conventional PTC readthrough agent (i.e., G418) and ACE-tRNAs delivered in plasmids. To that end, an engineered human bronchiole epithelial cell line, 16HBE14ge-, was used (Valley et al., Journal of Cystic Fibrosis, Volume 18, Issue 4, July 2019, Pages 476-483). G418 (Geneticin) is a standard PTC readthrough agent that works by interacting with the decoding center of the ribosome and promoting the suppression of PTCs with near-cognate tRNAs, thus incorporating wrong amino acids in many instances. Due to its non-specific nature, rescue by G418 results in generation of a missense mutation from a nonsense mutation. In contrast, ACE-tRNAs as disclosed herein put in the desired amino acid.
To carry out the assays, wildtype 16HBE14ge- cells or 16HBE14ge- cells having the W1282X-CFTR or R1162X-CFTR mutation were (i) treated with 100 uM G418 or vehicle, or (ii) transfected with empty plasmids or various plasmids encoding one or four copies of three ACE-tRNAs (SEQ ID NOs: 8, 4, and 1): 1×ACE-tRNA^Arg 4×ACE-tRNA^Arg, 1×ACE-tRNA^Leu 4×ACE-tRNA^Leu, 1×ACE-tRNA^Trp, and 4×ACE-tRNA^Trp in the manner described in Example 4. After 48 hours, the corresponding CFTR mRNA expression levels were then determined.
In this example, assays were carried out to examine and compare rescues of endogenous CFTR PTCs with ACE-tRNAs delivered in different formats e.g., plasmids, CEDTs, and MCs. The above described 16HBE14ge- cells, which expressed the PTC readthrough reporter piggyBac transgene (FIG. 15A) was used. More specifically, the cells were transfected with plasmids, CEDTs, or MCs encoding ACE-tRNAs. The cells were then sorted by FACS and mRNA was isolated from the non-green cells and green cells. Targeted RT-qPCR was used to quantify CFTR mRNA expression. […]
Further assays were carried out using 16HBEge- cells having W1282X-CFTR and the PTC readthrough reporter piggyBac transgene. […] The cells were NOT sorted by FACS for mRNA expression analysis, rather the entire population was analyzed.

B1: SV40 sequence: DNA sequence from the SV40 genome containing the enhancer repeats, DNA nuclear targeting sequence (nucleic acid)
DNA: ATGCTTTGCATACTTCTGCCTGCTGGGGAGCCTGGGGACTTTCCACACCCTAACTGACACACATTCCACAGCTGGTTGGTACCTGCA
modifications: listed as DNA, chemistry not fully specified
localization after cytoplasmic injection [1]: nuclear localization
time to plasmid nuclear import [1]: ≤ 30 min

B2: ACE-tRNA^GlyUGA: anti-codon edited glycine tRNA recognizing the UGA PTC, SEQ ID NO: 5 (nucleic acid)
chain: GCGUUGGUGGUAUAGUGGUUAGCAUAGCUGCCUUCAAAGCAGUUGACCCGGGUUCGAUUCCCGGCCAACGCA
modifications: expressed or natural sequence
fidelity of encoding the cognate amino acid (PTC): high fidelity
stop codon specificity (UGA codon): specific for the UGA codon
PTC suppression compared with AMG G418 and gentamicin (UGA codon; 48 hr incubation in HEK293 cells): significantly outperformed
inhibition of NMD measured by qPCR (p.G542X-CFTR mRNA): significantly inhibited NMD

B3: ACE-tRNA^LeuUGA: anti-codon edited leucine tRNA recognizing the UGA PTC, SEQ ID NO: 4 (nucleic acid)
chain: ACCAGAAUGGCCGAGUGGUUAAGGCGUUGGACUUCAGAUCCAAUGGAUUCAUAUCCGCGUGGGUUCGAACCCCACUUCUGGUA
modifications: expressed or natural sequence
inhibition of NMD / rescue measured by qPCR (p.W1282X-CFTR mRNA): significantly inhibited NMD
rescue of CFTR mRNA (W1282X-CFTR mRNA; delivered via plasmids, FACS-sorted GFP+ and GFP− cells, RT-qPCR): significantly rescued
suppression of W1282X compared with Tryptophan ACE-tRNA (W1282X-CFTR mRNA; plasmids, 48 hours): more effectively
inhibiting nonsense mediated decay compared with G418 (W1282X-CFTR mRNA; plasmids, G418 100 uM, 48 hours, W1282X-CFTR cells): significantly more effective
